Experimental data taken from PMC6344880.

Biological target: 40S subunits of uS9/S16-R143G, uS9/S16-R143E and uS9/S16-R144 strains (S. cerevisiae)
Assay: co-sedimentation + cross-linking; formaldehyde cross-linking, whole cell extracts resolved on 10–30% sucrose gradients, Western blot of the 43/48S PIC (40S) fractions for eIF1, eIF2α and uS7, signals normalised to uS7; also in strains carrying the TIF5-G31R allele (Figure 6A), which reversed the accumulation of eIF2

- fold increase of association against the wild-type strain: 2.5 to 3 fold
Substance: eukaryotic initiation factor 1 (eIF1) (from UniProt P32911 1-108) (natural protein)
